Test results taken from patent publication US10435480.
Several values for one entry are separate records, joined by “and”; a condition that tells them apart may be missing. Equal values may be shown once.

Columns and labels:
[1] = molecular target: Mouse IgG (Sigma Cat No. 15381) (mouse); assay: immunoassay, OMP18 adsorbed on hydrophilic plate, mouse IgG 2 ug/mL, anti-mouse IgG-AP and PNPP; well 1
[2] = molecular target: Rabbit anti-mouse IgG-AP conjugate (Sigma Cat. No. A3688) (rabbit); assay: control without mouse IgG: conjugate only (1/5000) on OMP18, hydrophilic plate
[3] = molecular target: Mouse IgG (Sigma Cat No. 15381) (mouse); assay: immunoassay, OMP18 adsorbed on hydrophilic plate, mouse IgG 2 ug/mL, anti-mouse IgG-AP and PNPP; well 2
[4] = molecular target: Mouse IgG (Sigma Cat No. 15381) (mouse); assay: immunoassay, OMP18 adsorbed on hydrophobic plate, mouse IgG 2 ug/mL, anti-mouse IgG-AP and PNPP; well 2
[5] = molecular target: Mouse IgG (Sigma Cat No. 15381) (mouse); assay: immunoassay, OMP18 adsorbed on hydrophobic plate, mouse IgG 2 ug/mL, anti-mouse IgG-AP and PNPP; well 1
[6] = molecular target: Rabbit anti-mouse IgG-AP conjugate (Sigma Cat. No. A3688) (rabbit); assay: control without mouse IgG: conjugate only (1/5000) on OMP18, hydrophobic plate
OMP0 (E. coli) = OMP0 (E. coli) (UniProt P0A910); assay: M2 anti-FLAG-AP 1:1000 and PNPP on OMP0 treated PLA disc

Substance | A405 [1] | A405 [2] | A405 [3] | A405 [4] | A405 [5] | A405 [6] | Absorbance at 405 nm (OMP0 (E. coli))
OMP18 (from UniProt P38507 212-269; P38507 212-269) | 2.24 A405 | 0.027 A405 | 2.23 A405 | 2.33 A405 | 2.39 A405 | 0.056 A405 | –
M2 anti-FLAG alkaline phosphatase conjugated antibody (Sigma Cat No. A9469) | – | – | – | – | – | – | 0.312 A405 and 0.361 A405 and 0.374 A405
